Data from PMC2993699.
One block for each substance: values may come before it.

Assays:
[1] = target: Pph with a C-terminal strep-tag and an N-terminal his-tag (His10-Ppr(Δ1-601)-StrepTag II, pET16b-Pph) (R. centenaria); assay: SEC; crude soluble extract of E. coli C41 (DE3) with pET16b-Pph on Sephadex G-200, non-reducing conditions, 20 mM Tris pH 7.4, 40 mM NaCl, 20% glycerol; fractions by SDS-PAGE and Western blot against strep tag II
[2] = target: Pph with a C-terminal strep-tag and an N-terminal his-tag (His10-Ppr(Δ1-601)-StrepTag II, pET16b-Pph) (R. centenaria); assay: resonant mirror spectroscopy (Iasys biosensor cuvette); purified Pph (50 μg/ml) immobilised on an aminosilane cuvette (via strep-tag to streptactin by the results); increasing concentrations of purified Rc-CheW, 30 minutes each; fractional saturation, Scatchard plot
[3] = target: R. centenaria CheW (Rc-CheW) containing an N-terminal his-tag (R. centenaria) (UniProt P72251); assay: pull-down; as a1, with increasing amounts of added ATP (0-20 mM)
[4] = target: R. centenaria CheW (Rc-CheW) containing an N-terminal his-tag (R. centenaria) (UniProt P72251); assay: pull-down; as a1, residual ATP hydrolyzed by adding apyrase
[5] = target: R. centenaria CheW (Rc-CheW) containing an N-terminal his-tag (R. centenaria) (UniProt P72251); assay: pull-down; 50 μg purified his-Rc-CheW (bait) mixed with one in vitro translated [35S]-labelled prey, overnight at 37°C, bound to Cu(II)-Sepharose in 20 mM sodium phosphate pH 7.7, 200 mM NaCl, 50 mM imidazole; eluted with 500 mM imidazole; phosphorimaging; no ATP added (low ATP level, 2 mM, from the translation reaction)

Chain of UniProt P72251 (P72251 entry or part of it): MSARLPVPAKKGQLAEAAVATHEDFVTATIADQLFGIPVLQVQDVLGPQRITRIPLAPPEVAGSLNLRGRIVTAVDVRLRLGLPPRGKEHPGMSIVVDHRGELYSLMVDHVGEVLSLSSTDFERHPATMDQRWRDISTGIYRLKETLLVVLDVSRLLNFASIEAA

stoichiometry N [1]: 2
Substance: Pph with a C-terminal strep-tag and an N-terminal his-tag (His10-Ppr(Δ1-601)-StrepTag II, pET16b-Pph) (domain or fragment)

Kd [2]: 130 nM
Substance: R. centenaria CheW (Rc-CheW) containing an N-terminal his-tag (from UniProt P72251 1-165) (natural protein)

Rc-CheW-bound Pph with added ATP (% of input) [3]: 24%
bound Pph with apyrase (% of input) [4]: 5%
co-elution rate (% of input Pph) [5]: 13%
Substance: histidine kinase domain Pph of Ppr, in vitro translated and [35S]-methionine labelled (from pSK4) (domain or fragment)
